Results published in patent publication US20190112392A1 (Ablynx, published 2019).
Read-outs that look alike come from different tables or passages of the source.

T1: T cell receptor alpha/beta on purified primary human T cells (human, UniProt P01848 1-140; P01850 1-176)
T1 construct: whole, on cells; also called human primary T cells
T1 TCR alpha (looked up): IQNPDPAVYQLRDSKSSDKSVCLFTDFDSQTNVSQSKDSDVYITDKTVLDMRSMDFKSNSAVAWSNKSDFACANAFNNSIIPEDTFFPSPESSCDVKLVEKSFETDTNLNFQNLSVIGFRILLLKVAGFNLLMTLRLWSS
T1 TCR beta (looked up): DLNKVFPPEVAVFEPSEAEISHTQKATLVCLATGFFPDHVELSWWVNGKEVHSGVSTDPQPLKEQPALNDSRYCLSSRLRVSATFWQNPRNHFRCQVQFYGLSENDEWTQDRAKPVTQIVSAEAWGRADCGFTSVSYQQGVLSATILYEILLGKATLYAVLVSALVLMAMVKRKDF

T2: human CD20 on cells (human, UniProt P11836 1-297)
T2 sequence (looked up): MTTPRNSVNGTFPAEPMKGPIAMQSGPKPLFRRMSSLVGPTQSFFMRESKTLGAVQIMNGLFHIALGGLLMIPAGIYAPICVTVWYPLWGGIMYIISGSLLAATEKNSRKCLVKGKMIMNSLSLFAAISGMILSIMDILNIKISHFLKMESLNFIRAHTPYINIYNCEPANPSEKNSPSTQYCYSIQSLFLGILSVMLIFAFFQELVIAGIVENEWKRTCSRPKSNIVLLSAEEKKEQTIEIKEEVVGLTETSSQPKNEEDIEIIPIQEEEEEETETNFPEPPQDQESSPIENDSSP


Experiments:
[1] = target: T3, human CD3 expressed on HEK293H cells (human, UniProt P04234 22-171; P09693 23-182; P07766 23-207; P20963 22-164); test: flow cytometry, HEK293H human CD3 cells
T3 construct: also called HEK293H human CD3; HEK293H CD3
Experimental: (§1) Binding of purified monovalent anti-TCR Nanobodies to human TCR(2IAN)/CD3 expressed on HEK293H cells was evaluated and compared with the binding to HEK293H cells transfected with human CD3 in flow cytometry, as outlined in Example 5. Dilution series of anti-TCR Nanobodies starting from 1 μM were applied to the cells. The parental HEK293H cell line was included as TCR/CD3 negative cell line.
Nanobodies clearly bound to human TCR(2IAN)/CD3 expressed on HEK293H but not to the HEK293H cells transfected with human CD3 only, nor to the HEK293H parental cell line. The EC50 values obtained from the dose response curve are depicted in Table C-2.

[2] = target: T3, human CD3 expressed on HEK293H cells; test: flow cytometry on HEK293H human CD3 cells, MCF
Experimental: as §1

[3] = target: T1, T cell receptor alpha/beta on purified …; test: flow cytometry, purified primary human T cells
Experimental: Periplasmic extracts were screened for cell expressed TCR/CD3 binding using human TCR/CD3 transfected CHO-K1 or HEK293H cells and the respective CHO-K1 or HEK293H reference cell line in a mixed cell line setup. To this end, a large batch of the reference cell lines were labelled with 8 μM PKH26 and frozen. 5×10⁴ PKH labelled reference cells were mixed with 5×10⁴ target cells and incubated with periplasmic extracts for 30 min at 4′C, and washed 3 times. […] Samples were washed, resuspended in FACS Buffer (D-PBS from Gibco, with 10% FBS from Sigma and 0.05% sodium azide from Merck) and then analysed via a BD FACSArray. […] In this gate, 20,000 cells were counted during acquisition. Based on PKH26-SSC distribution, the PKH labelled parental population and the human TCR/CD3 unlabelled target population was selected. For these 2 populations the mean APC value was calculated.
Binding of purified monovalent anti-TCR Nanobodies to human TCR(2XN9)/CD3 expressed on CHO-K1 cells and to purified primary human T cells was evaluated in flow cytometry as outlined in Example 4.1.

[4] = target: T2, human CD20 on cells; test: cell-based or functional assay
[5] = target: T1, T cell receptor alpha/beta on purified …; test: flow cytometry, purified primary human T cells
[6] = target: T2, human CD20 on cells; test: cell-based or functional assay; remark: listed apart in the source
[7] = target: T2, human CD20 on cells; test: flow cytometry, Ramos cells
[8] = target: T4, T cell receptor alpha/beta on primary cynomolgus T cells (cynomolgus); test: cell-based or functional assay
[9] = target: T4, T cell receptor alpha/beta on primary …; test: cell-based or functional assay; remark: listed apart in the source
[10] = target: T5, EGFR on cells (UniProt P00533 25-1210, limits assumed); test: flow cytometry, HER14 cells
T5 construct: whole, on cells; also called HER14 cells (NIH3T3 transfected with EGFR); EGFR on LS174T and LoVo cells

[11] = target: T5, EGFR on cells; test: cell-based or functional assay

T3 sequence (P04234 22-171 limits assumed, chain 1 of 4): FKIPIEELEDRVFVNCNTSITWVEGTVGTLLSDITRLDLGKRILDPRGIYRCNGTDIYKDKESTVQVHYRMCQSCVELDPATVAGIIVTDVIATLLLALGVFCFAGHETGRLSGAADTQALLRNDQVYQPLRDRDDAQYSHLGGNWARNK
T3 sequence (P09693 23-182 limits assumed, chain 2 of 4): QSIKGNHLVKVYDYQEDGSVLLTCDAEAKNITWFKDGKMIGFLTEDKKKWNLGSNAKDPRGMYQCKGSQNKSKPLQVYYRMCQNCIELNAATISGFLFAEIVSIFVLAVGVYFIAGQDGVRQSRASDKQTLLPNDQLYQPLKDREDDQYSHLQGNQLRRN
T3 sequence (P07766 23-207 limits assumed, chain 3 of 4): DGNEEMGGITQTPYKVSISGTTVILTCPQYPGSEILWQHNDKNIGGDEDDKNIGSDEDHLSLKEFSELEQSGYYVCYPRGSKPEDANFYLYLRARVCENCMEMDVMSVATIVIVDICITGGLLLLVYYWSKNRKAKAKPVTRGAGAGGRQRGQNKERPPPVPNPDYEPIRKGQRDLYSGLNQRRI
T3 sequence (P20963 22-164 limits assumed, chain 4 of 4): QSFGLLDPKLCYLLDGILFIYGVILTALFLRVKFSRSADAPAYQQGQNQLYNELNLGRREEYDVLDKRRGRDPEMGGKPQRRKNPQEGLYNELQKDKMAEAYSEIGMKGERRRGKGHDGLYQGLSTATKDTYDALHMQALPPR

| Binder | MCF at 1 µM [1] [MCF] | binding result [2] | EC50 [3] [nM] | IC50, flow cytometry based human T cell mediated Ramos killing assay, E:T 10:1 [4] [nM] | EC50 [5] [nM] | IC50, xCELLigence human T cell mediated CHO-K1 CD20 killing assay, E:T 30:1, 44 h [6] [nM] | EC50 [7] [nM] | IC50, xCELLigence cynomolgus T cell mediated CHO-K1 human CD20 killing assay, E:T 30:1 [8] [nM] | IC50, flow cytometry based cynomolgus T cell mediated B cell (Ramos) killing assay [9] [nM] | EC50 [10] [nM] | Top [10] | IC50, xCELLigence human T cell mediated killing of HER14 cells, E:T 15, 50-60 h [11] [nM] |
| --- | --- | --- | --- | --- | --- | --- | --- | --- | --- | --- | --- | --- |
| T0170061G01 (VHH, Monovalent anti-TCR Nanobody, cluster C; expressed in E. coli as triple Flag, His6-tagged protein; also called T0170PMP061G01; not shown: C-terminal triple Flag-His6 tag of the E. coli-expressed monovalent) VHH: EVQLVESGGGLVQPGGSLRLSCAASGEIGRINFYRWYRQAPGNQREVVATITIADKTDYADSAKGRFTISRDESRNMVYLQMSSLKPEDTAVYFCHAGSRLYPYDYWGQGTQVTVSS | 495 | no binding (tested: 1e-6 M) | > 100 | – | – | – | – | – | – | – | – | – |
| T017000051 (bispecific antibody, CD20 x TCR bispecific Nanobody construct (cluster C); entry includes the FLAG3-HIS6 tag; also called 20CD019C07-35GS-T0170061G01-FLAG3-HIS6) EVQLVESGGGLVQPGGSLRLSCTFSGGTFSSYTMGWFRQAPGKEREFVAEVRWGGVTTYSNSLKDRFSISEDSVKNAVYLQMNSLKPEDTAVYYCAAVRQMYMTVVPDYWGQGTLVTVSSGGGGSGGGGSGGGGSGGGGSGGGGSGGGGSGGGGSEVQLVESGGGLVQPGGSLRLSCAASGEIGRINFYRWYRQAPGNQREVVATITIADKTDYADSAKGRFTISRDESRNMVYLQMSSLKPEDTAVYFCHAGSRLYPYDYWGQGTLVTVSSGAADYKDHDGDYKDHDIDYKDDDDKGAAHHHHHH | – | – | – | 0.57 | > 100 | 27 | 2.7 | – | – | – | – | – |
| T017000038 (bispecific antibody, TCR x CD20 bispecific Nanobody construct (cluster C); entry includes the FLAG3-HIS6 tag; also called T0170061G01-35GS-20CD019C07-FLAG3-HIS6) EVQLVESGGGLVQPGGSLRLSCAASGEIGRINFYRWYRQAPGNQREVVATITIADKTDYADSAKGRFTISRDESRNMVYLQMSSLKPEDTAVYFCHAGSRLYPYDYWGQGTLVTVSSGGGGSGGGGSGGGGSGGGGSGGGGSGGGGSGGGGSEVQLVESGGGLVQPGGSLRLSCTFSGGTFSSYTMGWFRQAPGKEREFVAEVRWGGVTTYSNSLKDRFSISEDSVKNAVYLQMNSLKPEDTAVYYCAAVRQMYMTVVPDYWGQGTLVTVSSGAADYKDHDGDYKDHDIDYKDDDDKGAAHHHHHH | – | – | – | 2.7 | > 100 | 4.1 | 21 | – | – | – | – | – |
| T017000055 (bispecific antibody, entry includes the FLAG3-HIS6 tag; also called 20CD019C07-35GS-T0170055A02-FLAG3-HIS6) EVQLVESGGGLVQPGGSLRLSCTFSGGTFSSYTMGWFRQAPGKEREFVAEVRWGGVTTYSNSLKDRFSISEDSVKNAVYLQMNSLKPEDTAVYYCAAVRQMYMTVVPDYWGQGTLVTVSSGGGGSGGGGSGGGGSGGGGSGGGGSGGGGSGGGGSEVQLVESGGGLVQPGGSLRLSCAASGDVHKINILGWYRQAPAKEREMVAHITIGDATDYADSAKGRFTISRDEAKNMVYLQMNSLKPEDTAVYFCRAYSRIYPYNYWGQGTLVTVSSGAADYKDHDGDYKDHDIDYKDDDDKGAAHHHHHH | – | – | – | 0.53 | 130 | 1.4 | 1.8 | 0.99 | 0.569 | – | – | – |
| T017000031 (bispecific antibody, TCR x CD20 bispecific Nanobody construct (cluster B); entry includes the FLAG3-HIS6 tag; also called T0170055C07-35GS-20CD019C07-FLAG3-HIS6) EVQLVESGGGLVQPGGSLRLSCITSGETFKINIWGWYRQAPGKQRELVASLTIGGATNYADSVKGRFTISEDSAKNTVYLQMNSLKPEDTAVYFCNAKSRLYPYDYWGQGTLVTVSSGGGGSGGGGSGGGGSGGGGSGGGGSGGGGSGGGGSEVQLVESGGGLVQPGGSLRLSCTFSGGTFSSYTMGWFRQAPGKEREFVAEVRWGGVTTYSNSLKDRFSISEDSVKNAVYLQMNSLKPEDTAVYYCAAVRQMYMTVVPDYWGQGTLVTVSSGAADYKDHDGDYKDHDIDYKDDDDKGAAHHHHHH | – | – | – | 1.1 | 350 | 2.1 | 23 | 1.2 | 0.79 | – | – | – |
| T017000042 (bispecific antibody, TCR x CD20 bispecific Nanobody construct (cluster A); entry includes the FLAG3-HIS6 tag; also called T0170055A02-35GS-20CD019C07-FLAG3-HIS6) EVQLVESGGGLVQPGGSLRLSCAASGDVHKINILGWYRQAPAKEREMVAHITIGDATDYADSAKGRFTISRDEAKNMVYLQMNSLKPEDTAVYFCRAYSRIYPYNYWGQGTLVTVSSGGGGSGGGGSGGGGSGGGGSGGGGSGGGGSGGGGSEVQLVESGGGLVQPGGSLRLSCTFSGGTFSSYTMGWFRQAPGKEREFVAEVRWGGVTTYSNSLKDRFSISEDSVKNAVYLQMNSLKPEDTAVYYCAAVRQMYMTVVPDYWGQGTLVTVSSGAADYKDHDGDYKDHDIDYKDDDDKGAAHHHHHH | – | – | – | 5.7 | 230 | 4.2 | 20 | 0.89 | 0.17 | – | – | – |
| T017000074 (bispecific antibody, TCR x CD20 bispecific Nanobody construct (cluster A); entry includes the FLAG3-HIS6 tag; also called T0170056G05-35GS-20CD019C07-FLAG3-HIS6) EVQLVESGGGLVQPGGSLRLSCVASGDVHKINFLGWYRQAPGKEREKVAHISIGDQTDYADSAKGRFTISRDESKNMVYLQMNSLKPEDTAVYFCRAFSRIYPYDYWGQGTLVTVSSGGGGSGGGGSGGGGSGGGGSGGGGSGGGGSGGGGSEVQLVESGGGLVQPGGSLRLSCTFSGGTFSSYTMGWFRQAPGKEREFVAEVRWGGVTTYSNSLKDRFSISEDSVKNAVYLQMNSLKPEDTAVYYCAAVRQMYMTVVPDYWGQGTLVTVSSGAADYKDHDGDYKDHDIDYKDDDDKGAAHHHHHH | – | – | – | 0.92 | 190 | 1.5 | 16 | 0.12 | 0.24 | – | – | – |
| T017000107 (other, EGFR x CEACAM5 x TCR multispecific Nanobody construct; entry includes the FLAG3-HIS6 tag; also called EGFR038G07-35GS-NbCEA5-35GS-T0170056G05-FLAG3-HIS6) EVQLVESGGGLVQAGGSLRLSCAASGRTFSSYVMGWFRQATGKEREFVATIAWDSGSTYYADSVKGRFTISRDNAKNTVHLQMNSLKPEDTAVYYCAASYNVYYNNYYYPISRDEYDYWGQGTLVTVSSGGGGSGGGGSGGGGSGGGGSGGGGSGGGGSGGGGSEVQLVESGGGSVQAGGSLRLSCAASGDTYGSYWMGWFRQAPGKEREGVAAINRGGGYTVYADSVKGRFTISRDTAKNTVYLQMNSLRPDDTADYYCAASGVLGGLHEDWFNYWGQGTLVTVSSGGGGSGGGGSGGGGSGGGGSGGGGSGGGGSGGGGSEVQLVESGGGLVQPGGSLRLSCVASGDVHKINFLGWYRQAPGKEREKVAHISIGDQTDYADSAKGRFTISRDESKNMVYLQMNSLKPEDTAVYFCRAFSRIYPYDYWGQGTLVTVSSGAADYKDHDGDYKDHDIDYKDDDDKGAAHHHHHH | – | – | – | – | – | – | – | – | – | 1.6 | 146000 | 0.14 |
